The text below walks through data of patent publication US11339434B2, “Methods for determining gene functions” (The Regents of the University of California, priority 2016, dated 2022).

A short description of this assay: methylation of 6-mercaptopurine by peptide barcoded TPMT, LC-ESI-MS. The following applies: 1 mM 6-mercaptopurine, 37° C., approximately 24 hours. It is filed as biochemical. How it is done: A polynucleotide encoding a peptide barcoded human thiopurine methyl transferase (TPMT) was incubated for 3 hours at 37° C. in the PURExpress® cell-free transcription/translation system (New England Biolabs, Inc. (Ipswich, Mass.)) according to the manufacturer's protocol in the presence (+protease) or the absence (−protease) of the WELQut-protease. […] After cell-free transcription/translation of peptide barcoded thiopurine methyl transferase (TPMT), 1 mM 6-mercaptopurine and phosphate buffered saline (0.1×) were added with (+cofactor) or without (−cofactor) 3.2 mM of the cofactor S-adenosyl-methionine (SAM). After incubation at 37° C., […] for approximately 24 hours (no shaking), methylation of 6-mercaptopurine and the presence of peptide barcode were determined by liquid chromatography-electrospray ionization-mass spectrometry (LC-ESI-MS).

B1: TPMT: peptide barcoded human thiopurine methyl transferase produced by cell-free transcription/translation (protein, UniProt P51580 1-245, looked up)
Thiopurine S-methyltransferase: MDGTRTSLDIEEYSDTEVQKNQVLTLEEWQDKWVNGKTAFHQEQGHQLLKKHLDTFLKGKSGLRVFFPLCGKAVEMKWFADRGHSVVGVEISELGIQEFFTEQNLSYSEEPITEIPGTKVFKSSSGNISLYCCSIFDLPRTNIGKFDMIWDRGALVAINPGDRKCYADTMFSLLGKKFQYLLCVLSYDPTKHPGPPFYVPHAEIERLFGKICNIRCLEKVDAFEERHKSWGIDCLFEKLYLLTEK
modifications: peptide barcode
notes: peptide barcoded human thiopurine methyl transferase produced by cell-free transcription/translation
Turning to B1, the “methylated 6-mercaptopurine detected by mass spectrometry” value by setting is: (absence of cofactor S-adenosyl-methionine, absence of WELQut-protease) “no methylated 6-mercaptopurine nor peptide barcode were detected”; (absence of cofactor S-adenosyl-methionine, presence of WELQut-protease) “no methylated 6-mercaptopurine was detected”; (presence of cofactor S-adenosyl-methionine (3.2 mM) and WELQut-protease) “methylated 6-mercaptopurine and the peptide barcode were detected”; (presence of cofactor S-adenosyl-methionine (3.2 mM), absence of WELQut-protease) “methylated 6-mercaptopurine was detected”.
